Experimental data as given in publication doi:10.1101/2024.04.30.591897 (bioRxiv, 2024).

Molecular target: LC3B (1-120, G120C) (human, UniProt Q9GZQ8 1-120, G120C)
Assay: pull-down

B1: GST-ALG2^ΔN23 (domain or fragment)
chain: DQSFLWNVFQRVDKDRSGVISDTELQQALSNGTWTPFNPVTVRSIISMFDRENKAGVNFSEFTGVWKYITDWQNVFRTYDRDNSGMIDKNELKQALSGFGYRLSDQFHDILIRKFDRQGRGQIAFDDFIQGCIVLQRLTDIFRRYDTDQDGWIQVSYEQYLSMVFSIV
Q: Does B1 bind?
A: binds
